# Assay results: the DeepSol protein solubility set
# Assay: soluble on expression in E. coli; label from the status in PepcDB or PDB records
row,Sequence,soluble on expression in E. coli
1,GDDNSYSLGDIWIAVATVVPEGNNVYYLRLDDGDKLWPAATNYPNYQPKPNQRALVNFTILADSTQSNLGGFSHYIKVNAIHNILTKSIAKNEGAANDSIYGTDPVSIYNNNMWIGDGYLNIYFETLWGGKTAHFINLIQPDAENDPYTLEFRHNAYDDPQYTIGAGRVAFNLSSLPDTKGETVDLVVNYWTSEGKQAYKLKYNSDKTKMEDTSQGYTNDSISNITDMK,soluble
2,MKYQIVTSGFGGQGAVFIVKLLSLCAGIKGEKYLGTENHGMSQRGGSVSCFIKVGDFYTPVIEENQADMIIALEQNEGLRTLQYLKKGGKLIVNADDSLPRLEGCEAIKVDAFSLAKEGRFPAQALNAFMVGVASMQSGFPFDEETLKKGLEMINPKVAESNIQVFELGRACAPRS,not soluble
3,MSKEQAHAELKKDYLIHDEKIMLMQEIVDRQLAAVPDLYRVKDEVSIYIGIPFCPTKCAYCTFPAYAIQGQAGRVGSFLWGLHYEMQKIGEWLKEHDVKVTTIYFGGGTPTSITAEEMDLLYEEMVRSFPDVKNIREITVEAGRPDTITEEKLAVLNKYDIDRISINPQSYENETLKAIGRHHTVEETIEKYHLSRQHGMNNINMDLIIGLPGEGVKEFRHSLSETEKLMPESLTVHTLSFKR,not soluble
4,MGSDKIHHHHHHGCDDNTGGLGLGMFPGNDQNIKGKLSTFDVTTESVKTGDIYAKTNIGYIGKFTDETFGTYQAGFLAQLNCPDGLTFPEPYKEVTDASGNVISATGRMVVDDKDPENKDVTFIKDGNQIIGNIRAVELYLWYDSYFGDSLTACRLSVYELGGNGKETLNLDNAYYTDINPEDFYDSQNILGTKAYTAVDLSVKDSIRNLSTYVPSVHIAFKEDIATRVGGNILTAARKAKNADKEFNSQLFREAFQGIYVKSDYGDGTVLYIDQPQMNVVYKCYATDSITGKKLQKKDGSGKDSTYYSYRVFATTREVIQANQLKNDPERIDALIKEDKNTYLKSPAGIFTEATLPISDIQNELTGDTLNAVKLTFTNYNQTGDKKFGMAIPSTVMLVRKKFQDSFFKDNKLSDGVSSYLTSHTSSTNQYVFSNITKLVNACIAEKEEAKKNAGSSWDETKWLQENPDWNKVVLIPVLVTYDSSNTTTGQANIIRIQHDLKPGYVRLKGGSLGKTNPDYKLKLEVISTDFGLTTKSN,not soluble
5,AHHHHHHGSVKVTFLGHAAFYIEGSKKILIDPFLSGNPVASAKPDDFKSVDLILVTHAHGDHLGDVGTIAKRTGAKVVAMYDLANYIAEKYKGVETIGMNYGPTKVDEVEIVQVPAWHSSSDGKYSIGNACGYIVKLDGVTIYHAGDTYVFKDMELFAELYGPIDVALLPIGGHFTMGVREAAKAVELLKPRHVIPMHYNTWPPIAADPEEFKKLVGEKAKVVILKPGESLEL,not soluble
6,MSLNVGYLCTYTPKELIDAAGFTPIRIFAGDMQISLATAHIQSYACSQARGSLERALRGELDVQAVVFTRCCDTLMRLADIWERNTDMRVYNIEFPTRVEERSKDYYFNELKDFVKVLEEWGGGVTLESLRESLKLYHELEEKLKRLFSLKPDYEAAKRVQEMNVREAIKFVDERLRKAESEGGKPRVLITGSVCPFVEVYTLFEEAGFALKDDICTGTRFFTFNTPPREIGSVDEGLRFLVDKYFEKAPCPTKHFPNDDRFKYILEMAKDCDGVVFLLLKFCEPHFYDYPQLKERLEEMGKKVLLLELEFPIASIEQLRTRIEAFYEVIAEGGSHHHHHH,soluble
7,SLTTENQNPLVLDKNEEISQQKADDIRLQLRQEPEVKRLAQQIDVKNQMELLEYGKEPAVEISKFSDRILGMMKTTSVTDSGTMLTQLGKIMDRFDKNDFDEPKGLMAKIFKRGGSMIEKIFKKYQTLGGEIEKIHVEISKYKDEMTKTNYTLDEMYENNIKYYMELEKYVVAGQMKLEEMQSILPSYEEKAASGNQLAQMQLDTLRNGIQALEERVYDLDMARMVALQTAPQIRLLQRGNAKLIGKINSAFIITIPIFKNGIIQAVTVKRQKLVADSMSELDRRTNEMLKRNAENISSQSVEIARMAGRPSIDIETIESSWNTIVSGMQETKQIEEENKRLREDGARRIAQLQDNIKKAALQQ,soluble
8,MGHHHHHHSHMKVGKNNFRPPPKVESSVVRIEPKNPPPPINFQEWDGLVRITFVRKNKTLSAAFKSSAVQQLLEKNYRIHCSVHNIIIPEDFSIADKIQQILTSTGFSDKRARSMDIDDFIRLLHGFNAEGIHFS,not soluble
9,MKPLKRHPALIGLSRDHHHSLSLCVRLLRTPEERHRDELEPHFSELETHFREEETKFAPIWQNVAPELKQRFEKDHARLRQMMASPEYGNAAWNTAFATTLRDHARFEERELFPAAEPFLPA,not soluble
10,MPLLCALIVGGLFGTSQAQAGGFMVPTTNTAGWGRAMAGGSLFPNDPSAAFNNPAAMAFIDKRIAQLTVNYADIDIKYNGDAYDYQGNPMTGGYQDGPGTPELGTNDGGQAGFGAWLPTGFLVVPINDRFAFGLSQVVPMGMRSTWDPNWKGRDFAVDTKIETIGLTGSLSFKVNDNFSLGAGVIIQRTSGFVSQNLDLYASAANSPGMGGIPFPASNSSALMRVKVDNTSPGFFAGAVWKPTDRDTLGFAYHAKIRNKLKGHYNLYDHDGGLTEGAIEGGTPGLAYPGLDLRMGASASARLDIPAYASLDWVHQFNDRLSLGASATWTEWSSFQDLTLKSHGNTIVSIPYTYRNTWTLAVGGDYKVTDQWTMRAGVAYDQTPTHNATRDPRIPDGDRYFASLGAGYRFQSMPELSIDAAYSRQFVKEVPLKTVNQDRLGGGRLDGRATSKGQVFSLSATYDF,not soluble
11,MGFHLRGLGGSLKPLPFSTMYLEATGKSIEADLRTVFARDPKLSVMSEPKGAQAVVSVVSENQSKDILTINTGGRINEYQLTYTVVVRTVIGGVPVDPDMVVTVRRSLNYSDNQVLGKQQEEDLLWADARRDAAEQIVRRLAYLKVPAAPLAGPVSVKPDAVPQPLEHHHHHH,soluble
12,MQFGIFTIGDVTVDPTTGKAPTEGERIHAMTQIALKAEEVGLDVFATGEHHNPPFVPSSPTTHLAYIAAKTEKLLLSTSTTLITTNDPVKIAEDYTFLQHLSGGRVDLMMGRGNTGPVYPWFGKDIHQGIPLAIENYHLLRRLWREDVVNWQGKFRTPLQGYTSTPAPLDGVAPFVWHGSIRSTEIAEQAAFYGDGFFHNNIFWNKEHTAQMVNLYRQRFEHYGHGQADQAIVGLGGQVFIGDSEEEAKKTFRPYFDNAPVYGHGPSLEDFSRLTPLTVGTAEQVIERTMEFADWVGDYQRQLFLIDHAGLPLEMVLDQIERLGHDVVPEVRRRMEERRPDHVPSNPPTHQSLKANRNSPHFQINPGQPTE,not soluble
13,MGSDKIHHHHHHMLSHEEIVAIAEDLLSKRYGGVQTLSDVEQLNGSGTSAVLRARVANSPFLQQRSVVLKYVPSTGDVFDDSALVREIVSYQFTTSLSEDVRPGPVILAYDIDKRILVISDSGNGDTFADLIDQRTGDQRMQILRNLGQSLGSLHAATADREEDFNILLNRMLAKYPATAEMQKNRDRLLPAAIEVGKKILVDAGVTVPEVVEEFARVARRRLISGRHRAFTPFDLSPDNIIVAERTHFLDYEVAGFRDATFDVACVIAGFPQFVFSRPISDDEVDELIESWVQEVRGIWPNVNNEERLQARIVTALIGWALSSVAFMKLGSISGMLNLLHVTEDGNTTLDVSNLDELLIPRSAEDDELVQQDLHDTFSALQRFAARGLDSRFPEVARFADDVVRLFLKND,not soluble
14,MYNISFTPDRPLTYHLEDDQSLARLSLVPGRGGLVTEWTVQGQPILYFDRERFQDPSLSVRGGIPILFPICGNLPQDQFNHAGKSYRLKQHGFARDLPWEVIGQQTQDNARLDLRLSHNDATLEAFPFAFELVFSYQLQGHSLRIEQRIANLGDQRMPFSLGFHPYFFCREKLGITLAIPANDYLDQKTGDCHGYDGQLNLTSPELDLAFTQISQPRAHFIDPDRNLKIEVSFSELYQTLVLWTVAGKDYLCLEPWSGPRNALNSGEQLAWVEPYSSRSAWVNFQVSTELEHHHHHH,soluble
15,MAEQQQEQQIRVRIPRKEENEILGIIEQMLGASRVRVRCLDGKTRLGRIPGRLKNRIWVREGDVVIVKPWEVQGDQKCDIIWRYTKTQVEWLKRKGYLDELL,soluble
16,EKVKNSDYTFEVDFEGPFFPIVEGVNSFGKRMYRVAPQVLRVPLEKPETRVISDIKNGEVLVYVFIQSPEGVVPVSLNLEGKRFRFFNLEGKWICVFKSFLEDGAHELEITFNGPYGYTFSLKKEIYVIKRVAVPMRGEDGAFDYTVFAEHVVKRGETLWSIANQYGVRVGDIVLINRLEDPDRIVAGQVLKIGRVYFRENPVTIVVNLFSSKLALYYDGVLLKVYPVALGRSDATPPGRYWVLRKEIDPALYWFGEYISPRTPLNGLGTRYLQLSDPTYAIHGTSKPWEIGKRISHGCIRMFNRDVEEIDAFAGVGTEVVVVKEDKEFPERIY,not soluble
17,MGQERLDNANPTLFDSKPRHRPVTGTERDESVEDPIDSWEIFDLIRDINDPEHPYTLEQLNVVQEELIKVFIDEEETFVKVNFTPTIPHCSMATLIGLAIRVKLLRSLHPKVKVSVSITPGSHSTEESINRQLADKERVAAAMENQGLMHAVNECLRVPE,not soluble
18,AQELYKNENAPVHERVMDLISRLTVEEKISLLRATSPGIPRLGIDKYYHGNEALHGVVRPGRFTVFPQAIGLAATWNPELQKRVATVISDEARARWNELDQGREQKEQFSDVLTFWSPTVNMARDPRWGRTPETYGEDPFLSGIMGTAFVNGLQGDDPHYLKIVSTPKHFAANNEEHNRFVCNPQISEKQLREYYFPAFEMCVKEGKAASIMSAYNALNDVPCTLNPWLLQKVLRQDWGFQGYVVSDCGGPALLVNAHKYVKTKEAAATLSIKAGLDLECGDDVYDGPLLNAYKQYMVSDADIDSAAYHVLTARMKLGLFDS,not soluble
19,LAAGQLADLVVLSKDYFSVAEEEIKGIESVLTVVDGKVVYAAGHFSPLAPPPIPVLPEWSPVVKVPGHYRSAPPATAKIGAMVQMHQCCGSCGVHGHQHDIARKSSIPVSDEQAFWGVLGCSCFA,not soluble
20,LAAGPALSARGYLALNGQTPAGCSLMEWQNDNNGRQRWCVRLVQGGGFAGPLFDGFDNLYVGQPGAIISFPPTQWTRWRQPVIGMPSTPRFLGHGRLLVSTHLGQLLVFDTRRGMVVGSPVDLVDGIDPTDATRGLADCAPARPGCPVAAAPAFSSVNGTVVVSVWQPGEPAAKLVGLKYHAEQLVREWTSDAVSAGVLASPVLSADGSTVYVNGRDHRLWALNAADGKAKWSAPLGFLAQTPPALTPHGLIVSGGGPDTALAAFRDAGDHAEGAWRRDDVTALSTASLAGTGVGYTVISGPNHDGTPGLSLLVFDPANGHTVNSYPLPGATGYPVGVSVGNDRRVVTATSDGQVYSFAP,not soluble
21,MGSDKIHHHHHHMGSGSVIWRLLPPAQGDPTTELAAGAAMLAGLKETNCPAIRWYAAGSRPALVIGSGQKLSDVDHTALRQQGVTLHRRSSGGTAVLFVPGLLMQDIALPLDHPLYHPDVSESYRWLGDVWQATLAQFGIHTSLIDIAAARADRQTLDPLIARACFGGQSPYEVLVAGRKLVGFAQIRRREGVLFQVGLYTHWPGRQLATLLAMNEAERTIFGERLADRVTDLVTVCESPPDIHQIAAAFAMVLRQRYEVSITAADWTEAEREAMIAAQARFAPLRLEG,not soluble
